Values quoted from earlier work as cited in article PMC8241641 (European Journal of Nuclear Medicine and Molecular Imaging, 2021).

Set-up: method as in PMID 28864620

Substance: [^177Lu]Lu-DOTA-TATE
- Dose to the bone marrow typically calculated: 0.03–0.07 Gy/GBq
